Assay results from article PMC2605612.

Target: T1, Myc-hFis1[1-152] (human), Q9Y3D6
T1 chain: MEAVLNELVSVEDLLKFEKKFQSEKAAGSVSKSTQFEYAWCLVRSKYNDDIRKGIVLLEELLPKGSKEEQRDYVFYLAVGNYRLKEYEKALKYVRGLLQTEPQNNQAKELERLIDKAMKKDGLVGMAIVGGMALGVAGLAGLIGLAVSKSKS
Assay: cross-linking
Conditions: remark: other sources report otherwise

B1: Myc-hFis1[1-152], Q9Y3D6 1-152 (natural protein)
chain: T1 chain
B1 gave a stoichiometry N of 2.
